Measurements published in patent US20110201549A1 (UNIVERSITY OF GEORGIA RESEARCH FOUNDATION, published 2011).

Molecular target: T1, chymotrypsin-treated Cry3Bb (Bacillus thuringiensis, UniProt Q06117 162-652)
T1 construct: Insecticidal Cry toxin; It was coated on microtiter plates after chymotrypsin treatment; also called Cry3Bb protein; Cry3Bb toxin
T1 sequence: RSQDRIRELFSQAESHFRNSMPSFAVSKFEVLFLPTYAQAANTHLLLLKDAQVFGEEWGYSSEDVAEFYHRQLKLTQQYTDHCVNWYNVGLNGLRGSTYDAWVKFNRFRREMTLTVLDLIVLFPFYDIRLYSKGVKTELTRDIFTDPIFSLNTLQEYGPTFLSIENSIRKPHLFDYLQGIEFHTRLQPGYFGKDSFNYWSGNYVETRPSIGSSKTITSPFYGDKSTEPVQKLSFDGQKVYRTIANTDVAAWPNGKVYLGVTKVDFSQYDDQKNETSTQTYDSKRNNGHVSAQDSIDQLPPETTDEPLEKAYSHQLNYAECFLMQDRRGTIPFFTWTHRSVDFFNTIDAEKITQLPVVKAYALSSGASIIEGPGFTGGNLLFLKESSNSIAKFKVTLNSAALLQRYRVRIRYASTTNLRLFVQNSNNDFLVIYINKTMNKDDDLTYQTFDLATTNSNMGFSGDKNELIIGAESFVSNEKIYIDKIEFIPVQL
Test: ELISA-based microplate binding assay: plates coated with chymotrypsin-treated Cry3Bb, increasing concentrations of biotinylated TmCad1-TBR, streptavidin-HRP detection, one site saturation fit
Procedure: FIG. 7 illustrates TmCad1-TBR binding to Cry3Bb (Panel A) and enhancement of Cry3Bb toxicity to lesser mealworm by TmCad1-TBR peptides (Panel B). In Panel A, TmCad1-TBR binding to Cry3Bb protein was determined using an ELISA-based binding assay. Microtiter plates were coated with chymotrypsin-treated Cry3Bb and then incubated with increasing various concentrations of biotinylated TmCad1-TBR peptide. Bound biotinylated TmCad1-TBR peptide was detected with a Streptavidin-HRP conjugate and substrate. Non-specific binding was determined in the presence of 1000-fold excess unlabeled TmCad1-TBR peptide. Each data point is the mean of two experiments done in duplicate. Error bars depict standard deviation. Binding affinities (Kd) were calculated based on specifically bound biotinylated TmCad1-TBR peptide using a one site saturation binding equation. […] Cry3Bb inclusions without or with and increased amount of TmCad1-TBR inclusions were applied to semi-solid diet. One 1st instar darkling beetle larva was applied per well and the bioassays was scored on day 3. No toxicity was observed when treated with TmCad1-TBR peptide alone.
We tested the possibility that TmCad1-TBR binds a coleopteran-active Cry toxins using a microplate binding assay described previously (Zhang et al. 2008). […] TmCad1-TBR also enhances Cry3Bb toxicity to A. diaperinus larvae (FIG. 7A).

B1: TmCad1-TBR cadherin fragment from the Tenebrio molitor cadherin (T. molitor cadherin Toxin Binding Region) (receptor)
chain: MKQWYQRRVAITAGKDTTSKDKLQYNIDNITPSNLDLDIKSAFTMNTQSGDITINFEVKDSMEGYFTLDLSVQDEEPENHKADATLKIYIVTSKNTVVFRFENDQETVSDKAGDIKSVLDEEFQYETKVEAPTGNTTDGTPLTRSPVFFLNLNTNEPVDATEILKKVTNVDVFQRLKNNFSKVGLVLLSFDSSSETNENLEAHHHHHH
modifications: biotinylated (sites not given)
notes: also called CR12-MPED of TmCad1
  Kd: 13 nM
